Experiment: yeast display, Sf9 membrane polyspecificity reagent, FACS + sequencing; frameworks hold sequencing errors
Outline: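 Synthetic nanobody libraries on Saccharomyces cerevisiae BJ5465 were galactose-induced for 36–48 hours, stained 1 hour at 4 °C with 10% biotinylated, detergent-solubilized Sf9 membrane reagent and enriched on streptavidin microbeads. FACS then separated cells into low and high (top ~1%) gates by anti-HA (expression) and streptavidin (reagent binding) fluorescence. Genes were colony-PCR amplified, MiSeq 2 × 250 sequenced and CDR-length filtered. A clone's polyreactivity label is that of its gate of origin.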

Row | Sequence | polyreactivity (PSR sort gate)
1 | QVQLEESGGGLVQAGGSLRLSCAASGRIFAGYAMGWYRQEPGKERELVAAINGSGADTYYADSVKGRFTISRDNAKNTVYLQMNSLKPEDTAVYYCAASPGSQYTGYDYWGQGTQVTVSS | low polyreactivity
2 | QVQLEESGGGLVQAGGSLRLSCAASGRIFGVYAMGWYRQAPGKERELVAAISWSASSTYYADSVKGRFTISRDNAKNTVYLQMNSLKPEDTAVYYCNAEVLGFYELDYWGQGTQVTVSS | high polyreactivity
3 | QVQLEESGGGLVQAGGSLRLSCAASGRIFKSYTMGGYRQAPGKERELVAAITKSAASTYYADSVKGRFTISRDNAKNTVYLQMNSLKPVDTAVYYCAASRIGGGKVKFGYWGQGTQVTVSS | high polyreactivity
4 | QVQLEESGGGLVQAGGSLRLSCAASGRIFMTYAMGWYRQAPGKERELVAAITRRGGTTYYADSEKARFTISRDNAKNTVYLQMNCLKPEDTAVYYCAPAKPRVISQNIIYDYWGQGTQVTVSS | high polyreactivity
5 | QVQLEESGGGLVQAGGSLRLSCAASGRIFSDYAKGGYRQAPGKERELVATITSGDSTNYADSVKGRFTISRDNAKNTVYLQMNRLKPEDTAVYYCNADRFADYDYWGQGTQVTVSS | low polyreactivity
6 | QVQLEESGGGLVQAGGSLRLSCAASGRIFSPNVRGWYRKATGKERELVAGITSSGGSTYYADSVKGRLTISRDNAKNTVYLQMNSLKPEYTAVYYCAAPWVGTFVSGRGYYWGQGTQVTVSS | low polyreactivity
7 | QVQLEESGGGLVQAGGSLRLSCAASGRIFTRYALGWYRQAPGKERELVAAITGSGGSTYYADSVKGRFTISRDNAKNTVYLQMNSRKPEDTAVYYCATDFYCYRSYNYWGQGTQVTVSS | high polyreactivity
8 | QVQLEESGGGLVQAGGSLRLSCAASGRILAKYAMGWYRPAPRKEREFVDAISYSGGSTYYADSVKGRFTISRDNAKNNVYLLMNRLKPEYTAVYYCAASSYVLYRTRKMYFWGQGTQVTVSS | high polyreactivity
9 | QVQLEESGGGLVQAGGSLRLSCAASGRTFFPYAMGWYRQAPGKERELVAAISHGGRTYYADSVKGRFTISRDNAKNTVYLQMNSLKPEDTAVYYCNALSARSYYWGQGTQVTVSS | high polyreactivity
10 | QVQLEESGGGLVQAGGSLRLSCAASGRTFGLYAMGWYRQAPGKERELVAAITRSDGGTNYADSVKGRFTISRDNAKNTVYVQMNSLKPEDTSVYYCAVDLGYVSDVSWYAYEYWGQGTQVTVSS | low polyreactivity
11 | QVQLEESGGGLVQAGGSLRLSCAASGRTFGSNAMGWYRQAPGKERELVAAIRERGGSTYADSVKGRFTISRDNAKNTVYLQMNSLKPEDTAVYYCAADRSVIWSKNYDYWGQGTQVTVSS | low polyreactivity
12 | QVQLEESGGGLVQAGGSLRLSCAASGRTFGTNAMGWYRQAPGKERELVAAITTNGGRTYYADSVKGRFTISRDNAKNTVYLQMNSLKPEDTAVYYCAKYYQTDTYIYDYWGQGTQVTVSS | low polyreactivity
13 | QVQLEESGGGLVQAGGSLRLSCAASGRTFGYYAMGWYRQAPGKERELVAAISTRSGSTYYADSVKGRFTISRDNAKNTVYLQMISLKPEDTAVYYCAADSYPDYDYWGQGTQVTVSS | low polyreactivity
14 | QVQLEESGGGLVQAGGSLRLSCAASGRTFIYYAMGWYRQATGKEREFVAAITKSGGTTYYADSVKGRFTISRHNAKNTVYLQMNSLKPEDTAVYYCAKTTRRGFALYDYWGQGTQVTVSS | high polyreactivity
15 | QVQLEESGGGLVQAGGSLRLSCAASGRTFRLNVMGWYREAPGKQRELVAAISTRGGDTYYADSVKGRFTISLDNAKNTDYLQMNSLKPEDTALYYCAAEYTYVYDYWGQGTQVTLSS | high polyreactivity
16 | QVQLEESGGGLVQAGGSLRLSCAASGRTFRRNAMGWYRQAPGKERELVADISNGDSTKYADSVKGRFTISRDNAKNTVYLQMHSLIPEDTAVYYCNAQRYRVVVYISHGWQTRNYWGQGTQVTVSS | low polyreactivity
17 | QVQLEESGGGLVQAGGSLRLSCAASGRTFWLYAMGRYRQAPGKEREFVASISSSGDSTYYADSVKGRFTISRDNAKNTVYLQMNSLKPEDTAVYDCAARPSRRYLRNGLDYWGQGTQVTVSS | high polyreactivity
18 | QVQLEESGGGLVQAGGSLRLSCAASGRTFYYNAMGSSRQAPGKERELVAGITYRGGSTYYADSVKGRFTISRDNAKNTVYLQMNSLKPEDTAVYYCAVKYSWLSRFNYWGLGTQVTVSS | high polyreactivity
19 | QVQLEESGGGLVQAGGSLRLSCAASGRTLDYYAMGWYRQAPGKERELVASITSGGSTNYADSVKGRFTISRDNAKNTVYLQMNSLKPEDTAVYYCAADSAFYRDVKSNYWGQGTQVTVSS | low polyreactivity
20 | QVQLEESGGGLVQAGGSLRLSCAASGRTLRVNAIGWYRQAPGKERELVAANSSGGRTNYADSVKGRFTISRDNAKNTVYLQMNSLKPEDTAVYYCAVDRPRFPSRPPYHKYDYWGQGTQVTVSS | low polyreactivity
21 | QVQLEESGGGLVQAGGSLRLSCAASGSIFDLNAMGWYRQAPGKERELVAANSSGGGTYYADSVKGRFTISRDNAKNTVYLQMNSLKPEDTAVYYCAAVGYKGYGYDYWGQGTQVTVSS | high polyreactivity
22 | QVQLEESGGGLVQAGGSLRLSCAASGSIFDSYAMGWYRAAPGKERELVATINTSGGSTYYADSVKGRFTIHDNAKNTVYLQMNSLKPEDTAVYYCNAGRWVYWQNNFGDYGYWGQGTQVTVSS | low polyreactivity

Row | Sequence | polyreactivity (PSR sort gate)
23 | QVQLEESGGGLVQAGGSLRLSCAASGSIFDYYAMGWYRKATGKERELVAAISWSGGSTYYADSVKGRFTISRDNAKNTVYLKMIILKPEDTAVYYCAADSSGIGYSSLYFNWGQGSQVTVSS | low polyreactivity
24 | QVQLEESGGGLVQAGGSLRLSCAASGSIFPRFYAIGWYRQAPGKERELVAAISWRDGSTFYADSVKGRFTISRDNAKNTVYLQMNSLKPEDTGVYYCAAATYRYGYGYWGQGTQVTVSS | high polyreactivity
25 | QVQLEESGGGLVQAGGSLRLSCAASGSIFRRYARGWYRQAPGKERELVAAISRSGSSTYADSVKGRFTISRDNAKNTVYLQMNSLKPEDTAVYYCAASYAFLYYGYDSWGQGTQVTVSS | low polyreactivity
26 | QVQLEESGGGLVQAGGSLRLSCAASGSIFSYNSMGWYRQAPGKDREFVATIDWRDGSTYYADSVKGRFTISRDNGKNTVYLQMNSMKPEDTAVYYCATDYIVVEDYYWGQGTQVTVSS | high polyreactivity
27 | QVQLEESGGGLVQAGGSLRLSCAASGSIFTVNAMGWYRQAPGKERELVAAISSGGSTHYADSVKGRFTISRDNAKNTVYLQMNSLKPEDTAVYFCNAAGAYPDRDNYWGQGTQVTVSS | low polyreactivity
28 | QVQLEESGGGLVQAGGSLRLSCAASGSIIDYYAMGWYRQAPGKERELVADITVTGDGTYYADSVKGRFTISRDNAKNTVYLQMNSLKPEDTAVYYCAADFWLVSFQWDFEYDYWGQGTQVTVSS | low polyreactivity
29 | QVQLEESGGGLVQAGGSLRLSCAASGSILESNVMGWYRQAPGKERELVASISSSGDSTYADSVKGRFTISRDNAKNTVYLQMNSLKPEDTAVYYCAADRWYWTYALYYWGQGTQVTVSS | low polyreactivity
30 | QVQLEESGGGLVQAGGSLRLSCAASGSTFAGNAMGWYRQAPGKERELVAAISGSGGITYYADSVKGRFTISRDNAKNTVYLQMNSLKAEDTAVYYCNAYYWFSRYGYWGQGTQVNVSS | high polyreactivity
31 | QVQLEESGGGLVQAGGSLRLSCAASGSTFAPNAMGWYRAAPGKEMELVASIRRGGSTHYADSVKGRFTISRDNAKNTVYFQMNSLQPEDTAVYYCAAEFRDVSSNGYDFLGQGTQVTVSS | low polyreactivity
32 | QVQLEESGGGLVQAGGSLRLSCAASGSTFDYYARGWYRPAPGKERELVAVISSGGSTYYADSVKGRFTISRDNAKNTVYLQMNSLKPEDTAVYYCAAETYYYVLPHWYKYKYGYWGQGTQVTVSS | low polyreactivity
33 | QVQLEESGGGLVQAGGSLRLSCAASGSTFGYNAMGWYRQAPGKERELVAAITSGGRTKYADSVKGRFTISRDNAKNTVYLQMNSLKPEDTAVYYCATDQSYRFLFYRAYDMDYWGQGTQVTVSS | high polyreactivity
34 | QVQLEESGGGLVQAGGSLRLSCAASGSTFGYYAMGWYRQAPGKERELVAAISWSGTRTYYADSVKGRFTISRDNAKNTVYLQMNSLKPEDTAVYYCAAVYRGSYRGSYRFDDSHYDYSGQGTQVTVSS | high polyreactivity
35 | QVQLEESGGGLVQAGGSLRLSCAASGSTFHLYAMGLYRQAPGKEREFVAAIRGRGGNTYADSVKGRFTISRDNAKNTVYLQMNSLKPEDTAVYYCAAPLLRDLRSQYYYIYWGQCTQVTVSS | low polyreactivity
36 | QVQLEESGGGLVQAGGSLRLSCAASGSTFNDYAMGRYRQAPGKERELVAAISSSGGITYYADSVKGRFTISRDNAKNTVYLQMNSLKPEDTEVYYCAASGRDWSWYDYWGQGTQVTVSS | low polyreactivity
37 | QVQLEESGGGLVQAGGSLRLSCAASGSTFRRYTMGWYRQAPGKERELVAAITRGGSTYYADSVKGRFTISRDNAKNTVYLQMNSLKPEDTAVYYCAVKYFTAFRLRGDYWGQGTQVTVSS | high polyreactivity
38 | QVQLEESGGGLVQAGGSLRLSCAASGSTFRYYVMGWYRPAPGKERYLVAAITSSGSTNYADSVKGRFTISRDNAKNTVYLQMNSLKPEDTAVYYCAAVYRDRSQKKRIFYYWGQGTQVTVSS | high polyreactivity
39 | QVQLEESGGGLVQAGGSLRLSCAASGSTFTAYAMGWYREAPGKEMELVAAINWSGGTTYYADSVKGRFTISRDNAKNTVYLQMNSLKPEDTAVYYCAVDGNFFGEVRPYDYWGQGTQVTVSS | low polyreactivity
40 | QVQLEESGGGLVQAGGSLRLSCAASGSTFWYYAMGWYRPAPGKERELVAALSRSTGSTYYADSVKGRFTISRDNAKNTVYLQMNSLKPEDTAVYYCAADSYDWWQYTTSVHFDYYWGQGTQVTVSS | low polyreactivity
41 | QVQLEESGGGLVQAGGSLRLSCAASGSTFYYNAMGWYRQAPGKEREFVARISRSGGSTYADSVKGRFTISRDNAKNTVYLQMNSLKPEDTGVYYCNADAYGTPEFTSYAVRYDYWGQGTQVTVSS | low polyreactivity
42 | QVQLEESGGGLVQAGGSLRLSCAASGSTIFGNTMGWYRQAPGKERELVATITRRGGSTYYADSVKGRFTISRDNAKNTVYLQMNSLKPEDTAVYYCAKRGPYTKYDYWGQGTQVTVSS | low polyreactivity
43 | QVQLEESGGGLVQAGGSLRLSCAASGSTIKTYATMGWYRQAHGKERELVAAITSGSSTNYADSVKGRFTISRDTAMNTDYLQMNSLKPEDTAVYYGAADDYYNWYLGEPGDYLGQGTQVTVSS | low polyreactivity

From the nanobody polyreactivity screen of Harvey et al. (2022)
